Earlier results on 1 substance are cited in patent US6194458A, “Benzamide potassium channel inhibitors” (Merck & Co., Inc., priority 1999, dated 2001).

pIC50: −log10 of the molar value.

The data set has as its target T1, Kv 1.3 channels (Homo sapiens, UniProt P22001).
T1 construct: expressed in transfected cells; host or cells: CHO cells
As to conditions: blocker of Kv 1.3 channels; CHO cells transfected with Kv 1.3; stated in the method description.

T1 sequence (P22001 whole entry): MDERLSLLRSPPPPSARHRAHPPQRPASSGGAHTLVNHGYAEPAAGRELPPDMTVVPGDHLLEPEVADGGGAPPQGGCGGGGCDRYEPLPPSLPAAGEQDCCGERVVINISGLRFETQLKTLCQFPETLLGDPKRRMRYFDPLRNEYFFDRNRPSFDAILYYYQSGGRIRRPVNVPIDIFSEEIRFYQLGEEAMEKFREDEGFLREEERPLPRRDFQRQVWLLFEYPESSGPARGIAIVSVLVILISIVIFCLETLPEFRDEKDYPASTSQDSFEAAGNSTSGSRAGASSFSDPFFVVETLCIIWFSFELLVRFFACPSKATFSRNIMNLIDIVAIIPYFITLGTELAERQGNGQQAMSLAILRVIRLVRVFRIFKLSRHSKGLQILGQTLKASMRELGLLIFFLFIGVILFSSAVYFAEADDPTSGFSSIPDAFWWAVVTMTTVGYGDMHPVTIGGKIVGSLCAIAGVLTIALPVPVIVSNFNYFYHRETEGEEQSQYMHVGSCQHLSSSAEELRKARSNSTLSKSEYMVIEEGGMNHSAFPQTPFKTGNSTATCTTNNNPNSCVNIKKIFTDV

What is called pIC50 is the IC50 on a negative log10 scale, so that one unit is a factor of ten. Regarding “margatoxin (TIINVKCTSPKQCLPPCKAQFGQSAGAKCMNGKCKCYPH; UniProt P40755 1-39, looked up)”, the pIC50 is 10.00.
